Test results from publication PMC4140821 (2014).

B1: CSN6^ΔC (human CSN6 31–211 fragment) (domain or fragment)
chain: MACGVTGSVSVALHPLVILNISDHWIRMRSQEGRPVQVIGALIGKQEGRNIEVMNSFELLSHTVEEKIIIDKEYYYTKEEQFKQVFKELEFLGWYTTGGPPDPSDIHVHKQVCEIIESPLFLKLNPMTKHTDLPVSVFESVIDIINGEATMLFAELTYTLATEEAERIGVDHVARMTATGS
B2: CSN5^ΔC,WT (human CSN5 1–257 fragment) (domain or fragment)
chain: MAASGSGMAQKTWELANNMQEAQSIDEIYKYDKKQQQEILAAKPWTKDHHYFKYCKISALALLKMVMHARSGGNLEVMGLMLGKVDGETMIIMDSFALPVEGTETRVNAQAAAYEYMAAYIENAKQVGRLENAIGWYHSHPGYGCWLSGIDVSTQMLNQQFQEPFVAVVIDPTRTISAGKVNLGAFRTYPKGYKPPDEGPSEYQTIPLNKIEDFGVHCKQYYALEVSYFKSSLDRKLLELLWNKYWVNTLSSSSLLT

Legend:
Test in all cases: ITC
CSN5^ΔC,R106T = CSN5^ΔC,R106T (human, UniProt Q92905 1-257, R106T)
CSN6^ΔC,H44A = CSN6^ΔC,H44A (human, UniProt Q7L5N1 31-211, H44A)
CSN6^ΔC,V115E = CSN6^ΔC,V115E (human, UniProt Q7L5N1 31-211, V115E)

CSN5^ΔC,R106T, sequence (Q92905 1-257 R106T): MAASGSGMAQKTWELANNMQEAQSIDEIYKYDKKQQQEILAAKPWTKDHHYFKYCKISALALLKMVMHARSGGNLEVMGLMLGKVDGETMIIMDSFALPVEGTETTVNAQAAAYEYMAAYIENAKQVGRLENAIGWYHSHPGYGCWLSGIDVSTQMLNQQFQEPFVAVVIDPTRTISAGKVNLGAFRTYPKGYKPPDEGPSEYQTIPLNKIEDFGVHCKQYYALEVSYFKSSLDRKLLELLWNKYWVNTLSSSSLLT

| Binder | Kd (CSN5^ΔC,R106T) [µM] | Kd (CSN6^ΔC,H44A) [µM] | Kd (CSN6^ΔC,V115E) [µM] |
| --- | --- | --- | --- |
| B1 | 5.8 | – | – |
| B2 | – | 9.2 | 29 |
